One test has as its target T1, activin B (UniProt P09529 293-407).
T1 sequence (looked up): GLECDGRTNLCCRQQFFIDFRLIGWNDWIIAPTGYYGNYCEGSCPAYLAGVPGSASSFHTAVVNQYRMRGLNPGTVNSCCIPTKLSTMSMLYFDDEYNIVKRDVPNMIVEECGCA
Nature of the test: cell-based or functional assay.

Test [1] concerns the target T2, myostatin (UniProt O14793 267-375).
T2 sequence (looked up): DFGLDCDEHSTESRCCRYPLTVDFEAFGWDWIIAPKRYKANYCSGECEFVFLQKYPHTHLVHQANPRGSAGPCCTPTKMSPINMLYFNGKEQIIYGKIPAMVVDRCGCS
Nature of the test: cell-based or functional assay.

A further test concerns the target T3, activin A (UniProt P08476 311-426).
T3 sequence (looked up): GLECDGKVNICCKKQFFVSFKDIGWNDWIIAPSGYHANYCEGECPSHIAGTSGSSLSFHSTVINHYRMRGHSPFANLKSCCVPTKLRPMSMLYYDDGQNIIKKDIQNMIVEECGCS
Nature of the test: cell-based or functional assay.

The target of test [2] is T4, BMP9 (UniProt Q9UK05 320-429).
T4 sequence (looked up): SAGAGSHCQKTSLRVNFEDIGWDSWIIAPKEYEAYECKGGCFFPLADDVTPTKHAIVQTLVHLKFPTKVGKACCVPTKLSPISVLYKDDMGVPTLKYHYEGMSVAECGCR
Nature of the test: cell-based or functional assay.

In test [3] the target is T2, myostatin. Nature of the test: Octet Red BLI; protein on AHC biosensor, 10 nM ligand; legend +++ KD <10^-8M. How it is done: (§1) Myostatin and BMP9 binding activities of various hybrid ActRIIB ligand trap proteins were initially analyzed using Octect Red (ForteBio). Purified proteins or conditioned media were individually loaded to AHC biosensors with maximum loading. Following a baseline washing phase, the sensors were exposed to 10 nM myostatin or BMP9, respectively, for an association step followed by a dissociation step. All experiments were performed with shaking at 1,000 rpm. Binding activity was analyzed using ForteBio's software with KD being calculated using the ratio Kd/Ka.
Background: In BLI a coated tip is dipped into the sample, and binding shifts an interference pattern.

In test [4] the target is T4, BMP9. Nature of the test: Octet Red BLI; trap loaded on AHC biosensor. The procedure: as §1

The record followed here is patent publication US20260209306A1 (ALIVEGEN, published 2026).

Changes are numbered by the printed parent chain.

The KD is the equilibrium constant for the complex coming apart. A low value points to higher affinity.

B1: wild-type ActRIIB-ECD-Fc fusion protein (Fc fusion, not shown: a dimerising Fc or GST)
chain: ETRECIYYNANWELERTNQSGLERCEGEQDKRLHCYASWRNSSGTIELVKKGCWLDDFNCYDRQECVATEENPQVYFCCCEGNFCNERFTHLPEAGGPEVTYEPPPTAPTGGGGSESKYGPPCPPCP
Consider B1, for which the “Cell-Based IC50 (nM) Against Activin B; C2C12-CAGA-luc reporter” value (from here on “Cell-Based IC50 (nM) Against Activin B”) in the test with activin B was 1.04 nM. Besides, the “Cell-Based IC50 (nM) Against Myostatin; C2C12-CAGA-luc reporter” value (“Cell-Based IC50 (nM) Against Myostatin” for short) in the test with myostatin [1] stood at 1.24 nM. Besides, the “Cell-Based IC50 (nM) Against Activin A; C2C12-CAGA-luc reporter” value with activin A was determined as 1.27 nM. Further, the “Cell-Based IC50 (nM) Against BMP9; C2C12-BRE-luc reporter” value with BMP9 [2] came to 3.4 nM.

B2: AG-0011 hybrid ActRIIB ligand trap protein (Fc fusion)
chain: B1 chain with E28D, A68E, T69K, E70K, E71D, N72S, Q74E, F84M
notes: ECD - linker - hinge linker - Fc; signal peptide left out; not shown: human Fc domain
Take B2: in the test with myostatin [3], the KD was below 10 nM. Also, the binding result with BMP9 [4] is on record as “no binding (tested: 10 nM BMP9)”.

B3: AG-0027 hybrid ActRIIB ligand trap protein (Fc fusion, not shown: a dimerising Fc or GST)
chain: B1 chain with E28D, F58I, E70K
With B3, the “Cell-Based IC50 (nM) Against Activin B” value with activin B was 1.3 nM. Besides, the “Cell-Based IC50 (nM) Against Myostatin” value in the test with myostatin [1] was found to be 1.14 nM. Besides, the “Cell-Based IC50 (nM) Against Activin A; C2C12-CAGA-luc reporter” value with activin A was 1.62 nM.

B4: AG-0014 hybrid ActRIIB ligand trap protein (Fc fusion, not shown: a dimerising Fc or GST)
chain: B1 chain with E26Y, E28D, Q29K, L33R
For B4, the “Cell-Based IC50 (nM) Against Activin B” value with activin B came to 2.1 nM. Besides, the “Cell-Based IC50 (nM) Against Myostatin” value in the test with myostatin [1] was found to be 0.95 nM. In the test with activin A, the “Cell-Based IC50 (nM) Against Activin A; C2C12-CAGA-luc reporter” value was found to be 1.15 nM.
